Test results from patent US6121020, “Hepatitis C E1 and E2 polypeptides and methods of obtaining the same” (Chiron Corporation, dated 2000).

Biological target: probable NS4B (27 kDa), expressed from pTM1-NS25 (hepatitis C virus, UniProt P26664)
Test: co-immunoprecipitation with anti-E2 antibody from lysates of cells co-transfected with pTM1-NS25

B1: E2 species encoded by the template terminating at amino acid 699 (other)
chain: ETHVTGGSAGHTVSGFVSLLAPGAKQNVQLINTNGSWHLNSTALNCNDSLNTGWLAGLFYHHKFNSSGCPERLASCRPLTDFDQGWGPISYANGSGPDQRPYCWHYPPKPCGIVPAKSVCGPVYCFTPSPVVVGTTDRSGAPTYSWGENDTDVFVLNNTRPPLGNWFGCTWMNSTGFTKVCGAPPCVIGGAGNNTLHCPTDCFRKHPDATYSRCGSGPWITPRCLVDYPYRLWHYPCTINYTIFKIRMYVGGVEHRLEAACNWTRGERCDLEDRDRSELSPLLLTTTQWQVLPCSFTTLPALSTGLIHLHQNIVDV
binding result: no binding
